{"source": "patent US20230190867A1", "about": "“METHODS OF TREATING NASH AND COMPOSITIONS THEREFORE” (BIOINCEPT, LLC, priority 2018, published 2023)", "key": {"[1]": {"molecular_target": "Protein disulfide-isomerase A3 (Homo sapiens) (UniProt P30101)", "sequence (P30101 25-505 limits assumed)": "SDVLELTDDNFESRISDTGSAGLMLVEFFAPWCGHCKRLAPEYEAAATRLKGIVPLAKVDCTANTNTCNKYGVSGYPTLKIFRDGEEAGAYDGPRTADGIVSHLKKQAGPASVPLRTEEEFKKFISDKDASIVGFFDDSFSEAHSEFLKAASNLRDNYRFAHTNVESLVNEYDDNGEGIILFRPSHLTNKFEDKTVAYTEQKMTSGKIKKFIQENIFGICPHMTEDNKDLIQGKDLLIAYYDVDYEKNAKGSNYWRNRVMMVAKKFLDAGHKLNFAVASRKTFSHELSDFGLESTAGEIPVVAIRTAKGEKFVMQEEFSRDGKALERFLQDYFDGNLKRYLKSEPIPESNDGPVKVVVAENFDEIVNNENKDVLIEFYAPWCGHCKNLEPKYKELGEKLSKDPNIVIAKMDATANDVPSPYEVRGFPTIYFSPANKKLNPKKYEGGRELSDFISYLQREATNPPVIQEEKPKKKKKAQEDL", "experiment": "PIF-agarose affinity extraction of normal human liver lysate 3, LC-MS/MS"}, "[2]": {"molecular_target": "Transitional endoplasmic reticulum ATPase (Homo sapiens) (UniProt P55072)", "experiment": "PIF-agarose affinity extraction of normal human liver lysate 3, LC-MS/MS"}, "[3]": {"molecular_target": "Calreticulin (Homo sapiens) (UniProt P27797)", "sequence (P27797 18-417 limits assumed)": "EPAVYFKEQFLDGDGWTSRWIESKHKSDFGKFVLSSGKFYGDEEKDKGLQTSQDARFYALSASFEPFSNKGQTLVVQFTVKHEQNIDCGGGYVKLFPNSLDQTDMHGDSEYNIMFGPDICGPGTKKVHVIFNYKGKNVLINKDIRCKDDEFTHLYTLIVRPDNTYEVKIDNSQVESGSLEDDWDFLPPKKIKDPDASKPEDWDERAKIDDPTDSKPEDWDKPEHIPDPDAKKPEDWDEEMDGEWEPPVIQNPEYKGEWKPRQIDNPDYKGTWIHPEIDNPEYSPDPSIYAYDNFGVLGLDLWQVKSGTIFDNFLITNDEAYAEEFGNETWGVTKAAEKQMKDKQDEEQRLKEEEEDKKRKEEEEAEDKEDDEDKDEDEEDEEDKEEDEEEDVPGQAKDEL", "experiment": "PIF-agarose affinity extraction of normal human liver lysate 3, LC-MS/MS"}, "[4]": {"molecular_target": "Protein disulfide-isomerase A4 (Homo sapiens) (UniProt P13667)", "sequence (P13667 21-645 limits assumed)": "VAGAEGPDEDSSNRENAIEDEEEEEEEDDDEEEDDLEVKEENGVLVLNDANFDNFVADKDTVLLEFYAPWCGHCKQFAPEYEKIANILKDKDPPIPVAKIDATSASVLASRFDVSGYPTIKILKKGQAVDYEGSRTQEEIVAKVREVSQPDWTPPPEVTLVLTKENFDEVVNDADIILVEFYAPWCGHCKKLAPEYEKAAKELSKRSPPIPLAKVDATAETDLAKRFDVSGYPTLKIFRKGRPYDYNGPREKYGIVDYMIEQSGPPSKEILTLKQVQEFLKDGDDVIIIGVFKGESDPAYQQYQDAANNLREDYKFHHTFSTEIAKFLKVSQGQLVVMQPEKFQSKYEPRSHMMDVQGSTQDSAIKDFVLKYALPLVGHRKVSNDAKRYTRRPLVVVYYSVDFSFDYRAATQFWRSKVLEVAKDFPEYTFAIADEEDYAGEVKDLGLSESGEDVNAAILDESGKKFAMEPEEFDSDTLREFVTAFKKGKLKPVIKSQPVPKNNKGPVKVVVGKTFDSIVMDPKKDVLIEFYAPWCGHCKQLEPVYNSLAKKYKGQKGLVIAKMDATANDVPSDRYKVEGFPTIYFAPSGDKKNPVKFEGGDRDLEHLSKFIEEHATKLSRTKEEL", "experiment": "PIF-agarose affinity extraction of normal human liver lysate 3, LC-MS/MS"}, "[5]": {"molecular_target": "Peroxiredoxin-1 (Homo sapiens) (UniProt Q06830)", "sequence (Q06830 2-199 limits assumed)": "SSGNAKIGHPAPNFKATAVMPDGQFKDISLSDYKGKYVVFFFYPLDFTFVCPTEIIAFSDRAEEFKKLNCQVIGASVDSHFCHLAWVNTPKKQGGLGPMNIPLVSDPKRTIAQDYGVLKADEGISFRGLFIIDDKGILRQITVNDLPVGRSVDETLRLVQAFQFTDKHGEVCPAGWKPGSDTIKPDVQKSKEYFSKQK", "experiment": "PIF-agarose affinity extraction of normal human liver lysate 3, LC-MS/MS"}, "[6]": {"molecular_target": "Alpha-actinin-4 (Homo sapiens) (UniProt O43707)", "sequence (O43707 whole entry)": "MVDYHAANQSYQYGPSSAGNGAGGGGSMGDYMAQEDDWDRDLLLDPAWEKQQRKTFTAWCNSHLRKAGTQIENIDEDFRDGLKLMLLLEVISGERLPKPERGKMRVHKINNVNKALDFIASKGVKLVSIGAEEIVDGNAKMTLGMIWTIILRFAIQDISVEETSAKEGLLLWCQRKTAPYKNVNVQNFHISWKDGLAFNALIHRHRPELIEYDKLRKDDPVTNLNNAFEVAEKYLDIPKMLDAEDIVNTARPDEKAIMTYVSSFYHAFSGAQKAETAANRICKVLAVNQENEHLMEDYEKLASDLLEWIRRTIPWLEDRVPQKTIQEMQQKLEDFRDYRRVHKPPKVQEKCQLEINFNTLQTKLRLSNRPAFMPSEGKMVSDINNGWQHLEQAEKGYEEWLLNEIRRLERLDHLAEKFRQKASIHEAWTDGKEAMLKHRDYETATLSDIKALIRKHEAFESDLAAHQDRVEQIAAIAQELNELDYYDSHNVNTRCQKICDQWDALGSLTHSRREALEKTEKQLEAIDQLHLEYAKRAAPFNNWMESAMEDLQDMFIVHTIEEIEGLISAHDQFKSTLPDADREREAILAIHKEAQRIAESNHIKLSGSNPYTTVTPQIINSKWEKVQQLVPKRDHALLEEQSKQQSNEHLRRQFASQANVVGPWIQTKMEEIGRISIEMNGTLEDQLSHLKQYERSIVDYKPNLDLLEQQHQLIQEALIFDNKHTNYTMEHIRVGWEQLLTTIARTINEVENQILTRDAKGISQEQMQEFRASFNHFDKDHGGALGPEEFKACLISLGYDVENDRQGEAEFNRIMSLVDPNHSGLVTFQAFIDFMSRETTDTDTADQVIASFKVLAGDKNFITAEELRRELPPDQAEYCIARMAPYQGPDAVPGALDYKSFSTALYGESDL", "experiment": "PIF-agarose affinity extraction of normal human liver lysate 3, LC-MS/MS"}, "[7]": {"molecular_target": "Activated RNA polymerase II transcriptional coactivator p15 (Homo sapiens) (UniProt P53999)", "experiment": "PIF-agarose affinity extraction of normal human liver lysate 3, LC-MS/MS"}, "[8]": {"molecular_target": "Cytochrome b5 (Homo sapiens) (UniProt P00167)", "sequence (P00167 2-134 limits assumed)": "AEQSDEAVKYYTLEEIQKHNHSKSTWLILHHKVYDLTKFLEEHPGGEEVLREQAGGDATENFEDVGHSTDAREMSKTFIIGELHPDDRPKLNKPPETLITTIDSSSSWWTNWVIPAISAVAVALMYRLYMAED", "experiment": "PIF-agarose affinity extraction of normal human liver lysate 3, LC-MS/MS"}, "[9]": {"molecular_target": "Endoplasmin (Homo sapiens) (UniProt P14625)", "sequence (P14625 22-803 limits assumed)": "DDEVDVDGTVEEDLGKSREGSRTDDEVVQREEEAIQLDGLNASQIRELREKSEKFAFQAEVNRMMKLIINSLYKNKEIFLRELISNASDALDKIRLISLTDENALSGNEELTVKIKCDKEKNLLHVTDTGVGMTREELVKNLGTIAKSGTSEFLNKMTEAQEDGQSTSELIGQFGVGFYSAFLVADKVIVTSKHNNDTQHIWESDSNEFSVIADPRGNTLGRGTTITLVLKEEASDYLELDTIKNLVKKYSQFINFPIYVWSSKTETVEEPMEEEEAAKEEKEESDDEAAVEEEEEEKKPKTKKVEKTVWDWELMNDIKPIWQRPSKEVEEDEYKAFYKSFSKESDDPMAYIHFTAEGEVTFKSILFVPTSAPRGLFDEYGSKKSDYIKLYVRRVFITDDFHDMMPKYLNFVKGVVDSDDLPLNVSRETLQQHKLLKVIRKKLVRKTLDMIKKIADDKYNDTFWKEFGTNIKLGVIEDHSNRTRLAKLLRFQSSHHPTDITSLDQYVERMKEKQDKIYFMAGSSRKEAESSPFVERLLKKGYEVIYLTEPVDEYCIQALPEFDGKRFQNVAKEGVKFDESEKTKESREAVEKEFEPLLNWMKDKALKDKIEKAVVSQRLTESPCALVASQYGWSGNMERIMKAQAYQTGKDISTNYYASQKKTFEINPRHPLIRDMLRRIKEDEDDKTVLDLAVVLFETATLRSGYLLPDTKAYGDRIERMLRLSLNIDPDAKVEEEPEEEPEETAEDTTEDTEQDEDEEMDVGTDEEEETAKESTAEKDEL", "experiment": "PIF-agarose affinity extraction of normal human liver lysate 3, LC-MS/MS"}, "[10]": {"molecular_target": "Tropomyosin alpha-4 chain (Homo sapiens) (UniProt P67936)", "sequence (P67936 2-248 limits assumed)": "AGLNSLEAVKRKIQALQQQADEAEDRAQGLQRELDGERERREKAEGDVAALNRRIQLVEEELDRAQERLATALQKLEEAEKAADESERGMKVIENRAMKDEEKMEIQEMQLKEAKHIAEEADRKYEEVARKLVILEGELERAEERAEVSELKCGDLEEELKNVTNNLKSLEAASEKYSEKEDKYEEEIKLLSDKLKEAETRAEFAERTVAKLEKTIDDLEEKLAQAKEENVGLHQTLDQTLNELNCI", "experiment": "PIF-agarose affinity extraction of normal human liver lysate 3, LC-MS/MS"}, "[11]": {"molecular_target": "Alcohol dehydrogenase 4 (Homo sapiens) (UniProt P08319)", "sequence (P08319 whole entry)": "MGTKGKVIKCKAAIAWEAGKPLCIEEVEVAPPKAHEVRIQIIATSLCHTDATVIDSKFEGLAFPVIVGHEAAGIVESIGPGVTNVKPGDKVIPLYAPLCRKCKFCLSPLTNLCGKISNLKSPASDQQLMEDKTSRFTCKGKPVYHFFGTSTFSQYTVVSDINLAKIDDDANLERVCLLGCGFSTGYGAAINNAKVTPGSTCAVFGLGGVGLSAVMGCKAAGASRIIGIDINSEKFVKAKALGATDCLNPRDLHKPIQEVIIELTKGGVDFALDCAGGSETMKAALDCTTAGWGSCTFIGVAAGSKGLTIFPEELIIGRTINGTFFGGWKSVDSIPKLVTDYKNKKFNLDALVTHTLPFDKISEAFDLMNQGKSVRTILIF", "experiment": "PIF-agarose affinity extraction of normal human liver lysate 3, LC-MS/MS"}, "[12]": {"molecular_target": "Protein disulfide-isomerase (Homo sapiens) (UniProt P07237)", "sequence (P07237 18-508 limits assumed)": "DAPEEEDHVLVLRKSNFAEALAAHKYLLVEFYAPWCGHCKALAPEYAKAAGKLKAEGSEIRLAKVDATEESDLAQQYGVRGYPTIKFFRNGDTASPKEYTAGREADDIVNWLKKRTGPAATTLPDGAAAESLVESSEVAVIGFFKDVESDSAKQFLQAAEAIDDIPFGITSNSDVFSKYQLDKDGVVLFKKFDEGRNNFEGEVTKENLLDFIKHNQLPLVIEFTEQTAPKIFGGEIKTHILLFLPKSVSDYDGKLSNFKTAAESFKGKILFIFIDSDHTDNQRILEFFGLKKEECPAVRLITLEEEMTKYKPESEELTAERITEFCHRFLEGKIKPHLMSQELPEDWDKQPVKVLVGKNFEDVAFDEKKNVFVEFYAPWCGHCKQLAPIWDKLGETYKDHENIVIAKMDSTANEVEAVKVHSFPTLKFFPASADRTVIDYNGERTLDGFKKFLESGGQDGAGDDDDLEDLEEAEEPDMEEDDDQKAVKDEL", "experiment": "PIF-agarose affinity extraction of normal human liver lysate 3, LC-MS/MS"}, "[13]": {"molecular_target": "Protein disulfide-isomerase A3 (Homo sapiens) (UniProt P30101)", "experiment": "PIF-agarose affinity extraction of normal human liver lysate 1, LC-MS/MS"}, "[14]": {"molecular_target": "Transitional endoplasmic reticulum ATPase (Homo sapiens) (UniProt P55072)", "experiment": "PIF-agarose affinity extraction of normal human liver lysate 1, LC-MS/MS"}, "[15]": {"molecular_target": "Calreticulin (Homo sapiens) (UniProt P27797)", "experiment": "PIF-agarose affinity extraction of normal human liver lysate 1, LC-MS/MS"}, "[16]": {"molecular_target": "Protein disulfide-isomerase A4 (Homo sapiens) (UniProt P13667)", "experiment": "PIF-agarose affinity extraction of normal human liver lysate 1, LC-MS/MS"}, "[17]": {"molecular_target": "Calmodulin (Homo sapiens) (UniProt P0DP23)", "experiment": "PIF-agarose affinity extraction of normal human liver lysate 1, LC-MS/MS"}, "[18]": {"molecular_target": "Cytosolic 10-formyltetrahydrofolate dehydrogenase (Homo sapiens) (UniProt O75891)", "experiment": "PIF-agarose affinity extraction of normal human liver lysate 1, LC-MS/MS"}, "[19]": {"molecular_target": "Peroxiredoxin-1 (Homo sapiens) (UniProt Q06830)", "experiment": "PIF-agarose affinity extraction of normal human liver lysate 1, LC-MS/MS"}, "[20]": {"molecular_target": "Alpha-actinin-4 (Homo sapiens) (UniProt O43707)", "experiment": "PIF-agarose affinity extraction of normal human liver lysate 1, LC-MS/MS"}, "[21]": {"molecular_target": "Membrane-associated progesterone receptor component 1 (Homo sapiens) (UniProt O00264)", "experiment": "PIF-agarose affinity extraction of normal human liver lysate 1, LC-MS/MS"}, "[22]": {"molecular_target": "Activated RNA polymerase II transcriptional coactivator p15 (Homo sapiens) (UniProt P53999)", "experiment": "PIF-agarose affinity extraction of normal human liver lysate 1, LC-MS/MS"}, "[23]": {"molecular_target": "Delta-aminolevulinic acid dehydratase (Homo sapiens) (UniProt P13716)", "experiment": "PIF-agarose affinity extraction of normal human liver lysate 1, LC-MS/MS"}, "[24]": {"molecular_target": "Parathymosin (Homo sapiens) (UniProt P20962)", "sequence (P20962 2-102 limits assumed)": "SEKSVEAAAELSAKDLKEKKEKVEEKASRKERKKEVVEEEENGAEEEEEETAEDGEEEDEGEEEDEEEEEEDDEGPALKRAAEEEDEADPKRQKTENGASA", "experiment": "PIF-agarose affinity extraction of normal human liver lysate 1, LC-MS/MS"}, "[25]": {"molecular_target": "Cytochrome b5 (Homo sapiens) (UniProt P00167)", "experiment": "PIF-agarose affinity extraction of normal human liver lysate 1, LC-MS/MS"}, "[26]": {"molecular_target": "Alcohol dehydrogenase 1B (Homo sapiens) (UniProt P00325)", "experiment": "PIF-agarose affinity extraction of normal human liver lysate 1, LC-MS/MS"}, "Vimentin (Homo sapiens)": {"molecular_target": "Vimentin (Homo sapiens) (UniProt P08670)", "experiment": "PIF-agarose affinity extraction of normal human liver lysate 1, LC-MS/MS"}, "[27]": {"molecular_target": "Endoplasmin (Homo sapiens) (UniProt P14625)", "experiment": "PIF-agarose affinity extraction of normal human liver lysate 1, LC-MS/MS"}, "[28]": {"molecular_target": "78 kDa glucose-regulated protein (Homo sapiens) (UniProt P11021)", "experiment": "PIF-agarose affinity extraction of normal human liver lysate 1, LC-MS/MS"}, "[29]": {"molecular_target": "Cytochrome b-c1 complex subunit 6, mitochondrial (Homo sapiens) (UniProt P07919)", "sequence (P07919 14-91 limits assumed, one chain of several)": "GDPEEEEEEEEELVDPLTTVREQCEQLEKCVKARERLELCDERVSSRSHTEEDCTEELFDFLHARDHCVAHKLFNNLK", "experiment": "PIF-agarose affinity extraction of normal human liver lysate 1, LC-MS/MS"}, "[30]": {"molecular_target": "14-3-3 protein epsilon (Homo sapiens) (UniProt P62258)", "experiment": "PIF-agarose affinity extraction of normal human liver lysate 1, LC-MS/MS"}, "[31]": {"molecular_target": "Tropomyosin alpha-4 chain (Homo sapiens) (UniProt P67936)", "experiment": "PIF-agarose affinity extraction of normal human liver lysate 1, LC-MS/MS"}, "[32]": {"molecular_target": "Hepatoma-derived growth factor (Homo sapiens) (UniProt P51858)", "experiment": "PIF-agarose affinity extraction of normal human liver lysate 1, LC-MS/MS"}, "[33]": {"molecular_target": "Alcohol dehydrogenase 1A (Homo sapiens) (UniProt P07327)", "experiment": "PIF-agarose affinity extraction of normal human liver lysate 1, LC-MS/MS"}, "[34]": {"molecular_target": "Enoyl-CoA hydratase domain-containing protein 2, mitochondrial (Homo sapiens) (UniProt Q86YB7)", "experiment": "PIF-agarose affinity extraction of normal human liver lysate 1, LC-MS/MS"}, "[35]": {"molecular_target": "Alcohol dehydrogenase 4 (Homo sapiens) (UniProt P08319)", "experiment": "PIF-agarose affinity extraction of normal human liver lysate 1, LC-MS/MS"}, "[36]": {"molecular_target": "Protein disulfide-isomerase (Homo sapiens) (UniProt P07237)", "experiment": "PIF-agarose affinity extraction of normal human liver lysate 1, LC-MS/MS"}}, "data": [{"substance": "sPIF-1(15) (peptide)", "values": [{"measurement": "% Coverage of the unique peptides observed", "setting": "[1]", "value": 42, "unit": "%"}, {"measurement": "% Coverage of the unique peptides observed", "setting": "[2]", "value": 52, "unit": "%"}, {"measurement": "% Coverage of the unique peptides observed", "setting": "[3]", "value": 70, "unit": "%"}, {"measurement": "% Coverage of the unique peptides observed", "setting": "[4]", "value": 51, "unit": "%"}, {"measurement": "% Coverage of the unique peptides observed", "setting": "[5]", "value": 29, "unit": "%"}, {"measurement": "% Coverage of the unique peptides observed", "setting": "[6]", "value": 19, "unit": "%"}, {"measurement": "% Coverage of the unique peptides observed", "setting": "[7]", "value": 34, "unit": "%"}, {"measurement": "% Coverage of the unique peptides observed", "setting": "[8]", "value": 43, "unit": "%"}, {"measurement": "% Coverage of the unique peptides observed", "setting": "[9]", "value": 43, "unit": "%"}, {"measurement": "% Coverage of the unique peptides observed", "setting": "[10]", "value": 40, "unit": "%"}, {"measurement": "% Coverage of the unique peptides observed", "setting": "[11]", "value": 61, "unit": "%"}, {"measurement": "% Coverage of the unique peptides observed", "setting": "[12]", "value": 75, "unit": "%"}, {"measurement": "% Coverage of the unique peptides observed", "setting": "[13]", "value": 45, "unit": "%"}, {"measurement": "% Coverage of the unique peptides observed", "setting": "[14]", "value": 52, "unit": "%"}, {"measurement": "% Coverage of the unique peptides observed", "setting": "[15]", "value": 63, "unit": "%"}, {"measurement": "% Coverage of the unique peptides observed", "setting": "[16]", "value": 52, "unit": "%"}, {"measurement": "% Coverage of the unique peptides observed", "setting": "[17]", "value": 46, "unit": "%"}, {"measurement": "% Coverage of the unique peptides observed", "setting": "[18]", "value": 64, "unit": "%"}, {"measurement": "% Coverage of the unique peptides observed", "setting": "[19]", "value": 57, "unit": "%"}, {"measurement": "% Coverage of the unique peptides observed", "setting": "[20]", "value": 48, "unit": "%"}, {"measurement": "% Coverage of the unique peptides observed", "setting": "[21]", "value": 46, "unit": "%"}, {"measurement": "% Coverage of the unique peptides observed", "setting": "[22]", "value": 45, "unit": "%"}, {"measurement": "% Coverage of the unique peptides observed", "setting": "[23]", "value": 47, "unit": "%"}, {"measurement": "% Coverage of the unique peptides observed", "setting": "[24]", "value": 58, "unit": "%"}, {"measurement": "% Coverage of the unique peptides observed", "setting": "[25]", "value": 49, "unit": "%"}, {"measurement": "% Coverage of the unique peptides observed", "setting": "[26]", "value": 47, "unit": "%"}, {"measurement": "% Coverage of the unique peptides observed", "setting": "Vimentin (Homo sapiens)", "value": 50, "unit": "%"}, {"measurement": "% Coverage of the unique peptides observed", "setting": "[27]", "value": 47, "unit": "%"}, {"measurement": "% Coverage of the unique peptides observed", "setting": "[28]", "value": 55, "unit": "%"}, {"measurement": "% Coverage of the unique peptides observed", "setting": "[29]", "value": 53, "unit": "%"}, {"measurement": "% Coverage of the unique peptides observed", "setting": "[30]", "value": 78, "unit": "%"}, {"measurement": "% Coverage of the unique peptides observed", "setting": "[31]", "value": 47, "unit": "%"}, {"measurement": "% Coverage of the unique peptides observed", "setting": "[32]", "value": 60, "unit": "%"}, {"measurement": "% Coverage of the unique peptides observed", "setting": "[33]", "value": 48, "unit": "%"}, {"measurement": "% Coverage of the unique peptides observed", "setting": "[34]", "value": 45, "unit": "%"}, {"measurement": "% Coverage of the unique peptides observed", "setting": "[35]", "value": 53, "unit": "%"}, {"measurement": "% Coverage of the unique peptides observed", "setting": "[36]", "value": 76, "unit": "%"}]}]}
